Data taken from patent US11718646B2, “Bovine adrenal medulla peptide 8-22 compounds and methods of use thereof for treating pain” (Tufts Medical Center, priority 2015, dated 2023).
No end group written: not given here.

Tests used:
[1] = target: T1, wild type MrgprX1 (Homo sapiens, UniProt Q96LB2); assay: SRE-luciferase reporter gene assay in transfected HEK293 cells, wild type receptor; type: cell-based
T1 construct: expressed in transfected cells; host or cells: HEK293
Procedure: A luciferase reporter-based assay was utilized as an index of receptor-mediated signaling (as in Doyle et al., 2013). Human kidney cells (HEK293), grown in Dulbecco's modified Eagle's medium (DMEM) containing 10% FBS, 100 U/ml penicillin, and 100 μg/ml streptomycin were seeded in 96-well plates and grown to 80% confluence. Using polyethylenimine (PEI, 2.0 μg/mL in serum-free DMEM), cells were transiently transfected with cDNAs encoding (a) wild type or variant MrgprX1 (3 ng/well); (b) an SRE-luciferase PEST construct (SRE5×-Luc-PEST), which includes five SRE repeats, a luciferase reporter gene, and the protein degradation sequence hPEST (Promega, catalog #E1340) (25 ng/well); and (c) a CMV-β-galactosidase construct as a control for variability in transfection efficiency (10 ng/well). In experiments that included transfection of an MTL-encoding construct, the corresponding cDNA was added to the transfection mix, at 4 ng/well or as indicated.
(§1) Twenty-four hours following transfection, cells were stimulated with soluble ligand for 4 hours (if applicable). After addition of SteadyLite reagent (PerkinElmer, Chicago, Ill.), luciferase activity of the lysate was measured using a TopCount NTX plate reader. Subsequently, 2-nitrophenyl β-D-galactopyranoside (ONPG) was added as a colorimetric substrate to enable quantification of β-galactosidase levels. After incubation with ONPG for 30 minutes, absorbance at 420 nm was measured using a SpectraMax microplate reader (Molecular Devices). Luciferase activity was normalized using the β-galactosidase activity data. Three independent experiments were performed, each with three technical replicates. Data were graphed and statistically analyzed using Graphpad Prism software.
GraphPad Prism software version 6.0 (GraphPad Software Inc., La Jolla, Calif.) was used for sigmoidal curve fitting of ligand concentration—response curves, linear regression, and statistical analysis. EC50 and pEC50 values were calculated for each independent experiment as an index of ligand potency. Reported values represent the mean of three independent experiments. Statistical comparisons were made by one-way analysis of variance with Dunnett's multiple comparisons test.
As additional tools for structure-function studies, MTLs incorporating one of two endogenous peptide ligands for MrgprX1, BAMS-22 and γ2-MSH, were generated. The activities of MTL constructs in both orientations (type I, with an extracellular N terminus of the ligand; type II, with an extracellular C terminus) were assessed using a luciferase-based reporter assay as described herein. […] Luciferase activity was quantified and normalized relative to β-galactosidase expression. […]

[2] = system: spinal nerve ligation neuropathic pain; conditions: intrathecal; rats; cited from earlier work
[3] = target: T2, MrgprX1 R131S variant (Homo sapiens, UniProt Q96LB2, R131S); assay: SRE-luciferase reporter gene assay in transfected HEK293 cells, R131S variant; type: cell-based
T2 construct: expressed in transfected cells; host or cells: HEK293
T2 sequence (Q96LB2 whole entry R131S): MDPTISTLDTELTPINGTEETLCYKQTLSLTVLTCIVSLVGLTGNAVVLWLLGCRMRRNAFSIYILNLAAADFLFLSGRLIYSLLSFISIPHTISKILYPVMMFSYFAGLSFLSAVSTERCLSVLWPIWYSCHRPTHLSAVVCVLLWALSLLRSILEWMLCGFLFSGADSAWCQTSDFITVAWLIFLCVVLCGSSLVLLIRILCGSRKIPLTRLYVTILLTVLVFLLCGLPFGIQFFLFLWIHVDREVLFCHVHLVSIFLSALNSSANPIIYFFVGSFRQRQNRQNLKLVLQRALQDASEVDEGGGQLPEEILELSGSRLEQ
Procedure: (§2) A luciferase reporter-based assay was utilized as an index of receptor-mediated signaling (as in Doyle et al., 2013). Human kidney cells (HEK293), grown in Dulbecco's modified Eagle's medium (DMEM) containing 10% FBS, 100 U/ml penicillin, and 100 μg/ml streptomycin were seeded in 96-well plates and grown to 80% confluence. […]
as §1, with “Luciferase activity was normalized using the β-galactosidase activity data. Three independent experiments were performed, each with three technical replicates.” left out
(§3) GraphPad Prism software version 6.0 (GraphPad Software Inc., La Jolla, Calif.) was used for sigmoidal curve fitting of ligand concentration—response curves, linear regression, and statistical analysis. EC50 and pEC50 values were calculated for each independent experiment as an index of ligand potency. […]
Signaling of MrgprX1 following stimulation with the endogenous peptide ligand BAM8-22 was measured using a luciferase reporter assay as described herein. […]

[4] = target: T3, MrgprX1 F273L variant (Homo sapiens, UniProt Q96LB2, F273L); assay: SRE-luciferase reporter gene assay in transfected HEK293 cells, F273L variant; type: cell-based; conditions: significant only with tethered γ2-MSH
T3 construct: expressed in transfected cells; host or cells: HEK293
T3 sequence (Q96LB2 whole entry F273L): as the sequence (Q96LB2 whole entry R131S) above, with S131R, F273L counted along it
Procedure: as §2
as §1, with “Luciferase activity was normalized using the β-galactosidase activity data. Three independent experiments were performed, each with three technical replicates.” left out
as §3
(§4) The activity of tethered and lipidated BAMS-22 at each of the seven MrgprX1 variants was assessed (FIGS. 4A-4B). […]

[5] = target: T4, MrgprX1 R55L variant (Homo sapiens, UniProt Q96LB2, R55L); assay: SRE-luciferase reporter gene assay in transfected HEK293 cells, R55L variant; type: cell-based; conditions: significant only with tethered γ2-MSH
T4 construct: expressed in transfected cells; host or cells: HEK293
T4 sequence (Q96LB2 whole entry R55L): as the sequence (Q96LB2 whole entry R131S) above, with R55L, S131R counted along it
Procedure: as §2
as §1, with “Luciferase activity was normalized using the β-galactosidase activity data. Three independent experiments were performed, each with three technical replicates.” left out
as §3, §4

[6] = target: T5, MrgprX1 H133R variant (Homo sapiens, UniProt Q96LB2, H133R); assay: SRE-luciferase reporter gene assay in transfected HEK293 cells, H133R variant; type: cell-based
T5 construct: expressed in transfected cells; host or cells: HEK293
T5 sequence (Q96LB2 whole entry H133R): as the sequence (Q96LB2 whole entry R131S) above, with S131R, H133R counted along it
Procedure: as §2
as §1, with “Luciferase activity was normalized using the β-galactosidase activity data. Three independent experiments were performed, each with three technical replicates.” left out
as §3, §4

T1 sequence (Q96LB2 whole entry): as the sequence (Q96LB2 whole entry R131S) above, with S131R counted along it

Row | Substance | tethered ligand induced receptor activity of substituted BAM8-22 MTL ([1]; MTL construct in HEK293 cells) | time after administration at which the effect returns to baseline [2] [min] | ligand-mediated signaling compared to wild type receptor [3] | receptor stimulation at the highest tested concentration ([1]; 10 μM, accurate EC50 values could not be calculated) | ligand-mediated signaling compared to wild type receptor [4] | signaling at saturating concentration, of maximum lipidated BAM8-22 signaling ([1]; WT receptor, relative to lipidated BAM8-22 at 10^−7 M, mean±SEM, data not shown) [%] | MTL activation of the receptor ([1]; co-expressed with MrgprX1 in HEK293, increasing amounts of MTL cDNA, FIG. 3A, 3B) | ligand-mediated signaling compared to wild type receptor [5] | ligand-mediated signaling compared to wild type receptor [6]
1 | M15A-Y17W: double substituted BAM8-22 MTL analog, M15A and Y17W (VGRPEWWADWQKRYG; left off: small tags and cut ends; large carriers) | full activity |  |  |  |  |  |  |  | 
2 | bovine adrenal medulla peptide 8-22 (VGRPEWWMDYQKRYG) [BAM8-22, reference compound] |  | 90 | lower levels of BAMS-22 mediated activity | does not fully stimulate the receptors |  |  |  |  | 
3 | tethered BAM8-22: cDNA-encoded type I membrane tethered ligand: BAM8-22 fused to a transmembrane domain via a flexible linker, free extracellular N terminus (VGRPEWWMDYQKRYG; also: fused at C-terminus via flexible linker to a transmembrane domain (type I tethered ligand)) |  |  | negligible signaling levels |  | moderate decrease in signaling | 38.4±5.4 | Active | moderate decrease in signaling | not observed
